Earlier results, collected in paper PMC5596636 (ACS chemical neuroscience, 2016).

Assays:
Conditions in all cases: cloned mouse receptors; cited from earlier work
mMC5R = mMC5R (Mus musculus, UniProt P41149)
mMC1R = mMC1R (Mus musculus, UniProt Q01727)
mMC3R = mMC3R (Mus musculus, UniProt P33033)
mMC4R = mMC4R (Mus musculus, UniProt P56450)
mMC4R, sequence (P56450 whole entry): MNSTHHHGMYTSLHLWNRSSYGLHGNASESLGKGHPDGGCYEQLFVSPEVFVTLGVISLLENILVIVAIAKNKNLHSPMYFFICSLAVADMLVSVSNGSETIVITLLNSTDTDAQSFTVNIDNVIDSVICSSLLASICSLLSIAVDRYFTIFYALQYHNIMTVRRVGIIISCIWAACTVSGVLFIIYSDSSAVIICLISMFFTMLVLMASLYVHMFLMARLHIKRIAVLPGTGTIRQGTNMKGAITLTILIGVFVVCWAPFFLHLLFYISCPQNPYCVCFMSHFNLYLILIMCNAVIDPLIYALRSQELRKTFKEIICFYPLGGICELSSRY

mMC1R, sequence (Q01727 whole entry): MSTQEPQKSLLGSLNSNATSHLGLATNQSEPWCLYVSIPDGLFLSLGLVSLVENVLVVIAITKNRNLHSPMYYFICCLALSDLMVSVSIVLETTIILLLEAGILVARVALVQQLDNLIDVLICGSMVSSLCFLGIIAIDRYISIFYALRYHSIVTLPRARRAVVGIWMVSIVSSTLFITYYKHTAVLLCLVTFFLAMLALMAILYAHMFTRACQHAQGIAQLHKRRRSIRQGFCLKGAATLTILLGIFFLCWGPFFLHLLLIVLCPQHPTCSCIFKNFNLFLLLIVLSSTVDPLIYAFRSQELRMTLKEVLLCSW
mMC5R, sequence (P41149 whole entry): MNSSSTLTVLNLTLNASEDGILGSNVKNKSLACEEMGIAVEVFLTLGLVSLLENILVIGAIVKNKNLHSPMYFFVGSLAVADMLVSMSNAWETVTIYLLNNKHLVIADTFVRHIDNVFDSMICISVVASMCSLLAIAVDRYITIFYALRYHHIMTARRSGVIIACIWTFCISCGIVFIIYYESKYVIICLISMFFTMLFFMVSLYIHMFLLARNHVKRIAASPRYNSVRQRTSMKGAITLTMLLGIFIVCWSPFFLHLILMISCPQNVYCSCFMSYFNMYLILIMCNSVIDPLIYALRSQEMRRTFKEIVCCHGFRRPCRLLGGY
mMC3R, sequence (P33033 whole entry): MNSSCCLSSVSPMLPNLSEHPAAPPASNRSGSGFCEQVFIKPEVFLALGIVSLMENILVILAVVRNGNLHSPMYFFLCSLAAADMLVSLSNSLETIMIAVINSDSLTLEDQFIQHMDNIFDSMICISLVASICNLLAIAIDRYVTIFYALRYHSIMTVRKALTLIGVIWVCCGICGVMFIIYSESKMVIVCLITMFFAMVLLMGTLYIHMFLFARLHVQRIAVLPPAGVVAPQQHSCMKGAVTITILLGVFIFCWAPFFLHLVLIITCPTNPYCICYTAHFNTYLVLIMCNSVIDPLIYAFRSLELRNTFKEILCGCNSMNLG

Ac-His-Phe-Arg-Trp-NH2
agonist potency at the mMC5R (mMC5R): sub-micromolar potency
agonist potency at the mMC1R (mMC1R): micromolar potency
agonist potency at the mMC3R (mMC3R): micromolar potency
agonist potency at the mMC4R (mMC4R): micromolar potency
